In patent US20020004209A1, “Use of SLIM3 for binding to molecules” (Schering Aktiengesellschaft Patents, priority 1999, published 2002):

Target: T1, estrogen receptors alpha (Homo sapiens, UniProt P03372)
T1 construct: made in house; host or cells: in vitro translation, 35S-methionine labelled
T1 sequence (P03372 1-595): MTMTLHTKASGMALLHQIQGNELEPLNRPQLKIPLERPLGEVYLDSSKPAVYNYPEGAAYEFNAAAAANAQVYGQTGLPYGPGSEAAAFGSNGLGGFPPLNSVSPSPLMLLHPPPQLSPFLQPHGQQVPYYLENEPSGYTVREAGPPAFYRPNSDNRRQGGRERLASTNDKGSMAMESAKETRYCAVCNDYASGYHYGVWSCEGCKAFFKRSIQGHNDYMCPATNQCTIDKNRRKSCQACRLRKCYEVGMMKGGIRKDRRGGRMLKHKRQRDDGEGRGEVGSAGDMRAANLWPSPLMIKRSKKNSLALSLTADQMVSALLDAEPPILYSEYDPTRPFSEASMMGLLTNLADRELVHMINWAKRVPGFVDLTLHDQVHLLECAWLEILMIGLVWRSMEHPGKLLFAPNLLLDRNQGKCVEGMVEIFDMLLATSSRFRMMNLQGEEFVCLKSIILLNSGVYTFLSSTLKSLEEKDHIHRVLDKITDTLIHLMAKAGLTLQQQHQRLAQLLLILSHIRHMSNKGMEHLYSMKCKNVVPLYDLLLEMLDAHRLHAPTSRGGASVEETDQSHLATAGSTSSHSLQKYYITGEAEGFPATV
Experiment: GST-protein-interaction test
Format: binding
Settings: in vitro
Procedure: To measure the interaction between SLIM3 and the nuclear receptors in vitro, the GST-Slim3 fusion protein was immobilized by means of glutathione-sepharose and incubated with several in vitro-translated ^35S-methionine-labeled nuclear receptors. The complete human androgen receptor binds to GST-Slim3. This in vitro interaction is not ligand-dependent under standard conditions. The complete human androgen receptor binds specifically to GST-Slim3, but not to the GST protein alone. To safeguard the specificity between the human androgen receptor and SLIM3, another GST-protein-interaction test was carried out (GST-protein-interaction assay). This test is described in E. PFITZNER et al. (1995) Functional Antagonism Between the Retinoid Acid Receptor and the Viral Transactivator BZLF1 is Mediated by Protein-Protein Interactions. Proc Natl Acad Sci USA Vol. 92, pp. 12265-12269.

bond to SLIM3: no bond
Substance: SLIM3: LIM-domain protein of 279 amino acids, co-activator for nuclear receptors AR and ERβ
